Laboratory results as given in the supplement of paper PMC9170038.

Tested on: MS2 coat protein
Experiment: apparent KD of MS2 coat protein; designed switch direction (-1 OFF switch, 1 ON switch): -1; higher = weaker reporter binding
Procedure, shortened: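 An oligonucleotide input, 200 uM small-molecule ligand, or no input was present during titration of SNAP-549-labelled MS2 coat protein, which was doubled from 0.7 or 1.5 nM to 3 µM. Designed RNA switches had been transcribed on Illumina chips by stalled E. coli RNA polymerase. Apparent KD per design is the median over clusters of curves fitted to normalised cluster fluorescence.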

[1] = input ligand: microRNA oligo, concentration not stated
[2] = Eterna round: R95, input ligand: microRNA oligo, concentration not stated
[3] = Eterna round: R95, input ligand: FMN 200 uM
[4] = Eterna round: R95, input ligand: none

| Sequence | apparent KD of MS2 coat protein (input ligand: FMN 200 uM) [nM] | apparent KD of MS2 coat protein [1] [nM] | apparent KD of MS2 coat protein (input ligand: none) [nM] | apparent KD of MS2 coat protein [2] [nM] | apparent KD of MS2 coat protein [3] [nM] | apparent KD of MS2 coat protein [4] [nM] |
| --- | --- | --- | --- | --- | --- | --- |
| AGAGUGCUGCGAGGAUAUACAUGAGGAUCACCCAUGUUUUCCUGUGAGGCAUAGCCUCACAGGAUGUAGAAGGCGCAGUACUCA [Mat - Exclusion NG 2 - Mod of JL - D29] (Eterna round: R96, puzzle: Exclusion NG 2) | 13.5 | 9.44 | 13.7 |  |  |  |
| GUAGAGUCAGGAUAUACAAGAUCGAUAGAUCGGCGAUCCAUACAUGAGGAUCACCCAUGUAGAAGGGACUCUAC [Mat - Exclusion 2 - Eli Mod - D3] (Eterna round: R97, puzzle: Exclusion 2) | 693 |  | 40.2 |  |  |  |
| GUCCUACAUGAGGAUCACCCAUGUGAGGAUAUGCGGUUAGCUGCUAGGUAGUUAGUAUGCAGAAGGCGCGUGAA [EX1 #80] (Eterna round: R97, puzzle: Exclusion 1) | 15.9 |  | 14 |  |  |  |
| AGGCAGCAAGGAUAUACAUAAUUCCUACAAGUCAGCAUAGGACAUGAGGAUCACCCAUGUAGAAGGUGCAAAGA [Soesquma] (puzzle: Exclusion 2) |  |  |  | 24.5 |  |  |
| UCUCGCGGGCAAGGAUAUCCUACGCUGUUCUGGCCCGUGUAUGUUACAUGAGGAUCACCCAUGUGGGAGAAGGUGCACCAGGGC [Design 40] (Eterna round: R96, puzzle: Exclusion NG 2) | 83.3 | 39.3 | 76 |  |  |  |
| CUUGUGCAACAGGAUAUGUGCACGGCAGUAGCAACAGAAGGGUUGACAUGAGGAUCACCCAUGUUUACAAAGCG [Eternabot (Original) Solution 35] (Eterna round: R97, puzzle: Exclusion 6) | 132 |  | 137 |  |  |  |
| UGUAUAGGAGUGAGGAUAUGGAAACUGGAAAAGGACCAGAAGGCACAUGAGGAUCACCCAUGUGGUUCUCAAGA [Eternabot (Original) Solution 50] (Eterna round: R97, puzzle: Brourd's mod of Exclusion 4) | 1210 |  | 373 |  |  |  |
| ACAUGUCAUUGAGGAUAUCGCACACAUGAGGAUCACCCAUGUAAACGGAUGCUCAUUAGUGGGUUCGAGAAGGCGAUGUACAUU [Ex NG2 #99] (Eterna round: R96, puzzle: Exclusion NG 2) | 64.7 | 72.9 | 68.5 |  |  |  |
| CGGCACCGAGGAUAUACAUGAGGAUCACCCAUGUUUGUUGGGCCCUUAAGAUCUACGUGUAGAAGGUGGGUCGA [Edaribi] (Eterna round: R96, puzzle: Exclusion 3) | 241 | 147 | 173 |  |  |  |
| UUAUUACAAGCAAGAUCCCACAUGAGGAUCACCCAUGUGCUCGUCUUAUAAGGUACAGUGACGAAAGUCACAGUACC [Sensor 3, v1 - 0] (Eterna round: R96, puzzle: Sensor v3, turn-off variant 1) | 23.1 | 369 | 25.9 |  |  |  |
| CUGGAGUCAGGAUAUAGGGCGGCUAUAACGCUCGCGCCGACCUAGAAGGGACUUGAGGAUCACCCAAGUAAAAU [Teerlaxe] (Eterna round: R97, puzzle: Exclusion 4) | 167 |  | 55.1 |  |  |  |
| CUAGCAAUUGUAGGAUAUCGAUGUGUUUCACAUCGAGAAGGACAUGAGGAUCACCCAUGUGAAAGGAUCGUGAGAUCCAGCUAG [JL ENG1 3.75] (Eterna round: R96, puzzle: Exclusion NG 1) | 96.7 | 23.1 | 30.3 |  |  |  |
| GAGAAGUGAGGAUAUGCGAUAAGGAUGAAAGGAAGGAAUGAGUAGAAGGCACAUGAGGAUCACCCAUGUAGAGU [JR_Exclu4_Sub080] (puzzle: Exclusion 4) |  |  |  | 21.3 | 25.3 | 21 |
| CUGCUGAAGCUUUGCUUUAGUCGUACAUGAGGAUCACCCAUGUAGGAUAUGGUAGGCUUUGCUUACUAGAAGGAUAGAGUGAUC [salish99_ExNG3_r04_604] (Eterna round: R96, puzzle: Exclusion NG 3) | 72 | 82.4 | 61.9 |  |  |  |
| UCGGCGCGAGGAUAUACGUUUGCUUUUUAGGAUCGUGGCGUACAUGAGGAUCACCCAUGUAGAAGGCGCGCCGC [Apr-15 SS2-28] (puzzle: Exclusion 2) |  |  |  | 12.4 |  |  |
| AUUAAAAUAUAGGAUAUCGAAUAUAUUAUUUAACGAGAAGGAUGAACAUGAGGAUCACCCAUGUGGUAUCAUGG [Mat - Exclusion 6 - JL Mod - D36] (puzzle: Exclusion 6) |  |  |  | 298 | 157 | 402 |
| ACAUGUGUUGUAGGAUAUAGGACACAUGAGGAUCACCCAUGUGGUUUCAUGUCUAACCAAGCGUCCUAGAAGGACGGCAACAUG [Ex NG2 #27] (Eterna round: R96, puzzle: Exclusion NG 2) | 23.4 | 19.4 | 19.4 |  |  |  |

| Sequence | apparent KD of MS2 coat protein (input ligand: FMN 200 uM) [nM] | apparent KD of MS2 coat protein [1] [nM] | apparent KD of MS2 coat protein (input ligand: none) [nM] | apparent KD of MS2 coat protein [2] [nM] | apparent KD of MS2 coat protein [3] [nM] | apparent KD of MS2 coat protein [4] [nM] |
| --- | --- | --- | --- | --- | --- | --- |
| AUGCGUGGCUAGGAUAUUGAGGAAUUUAGUCAGCGAGAAGGAGCCACAUGAGGAUCACCCAUGUGGUGAAGCUC [jl-ex6-4.59 ViennaUCT mod] (Eterna round: R97, puzzle: Exclusion 6) | 70.5 |  | 19.1 |  |  |  |
| GGGUAAUUCGUGAGGAUAUCGCUAAGCACUUUGGCCGAGAAGGCACAUGAGGAUCACCCAUGUAAUACGGCACG [Eternabot (L1) Solution 92] (Eterna round: R97, puzzle: Brourd's mod of Exclusion 4) | 70.9 |  | 19.1 |  |  |  |
| AUUAUGUGAGGAUAUUAGUAGUAAAUAAAUAAAAUUAUUACUGAGAAGGCACAUGAGGAUCACCCAUGUUCCUU [Salish 062 v6] (Eterna round: R97, puzzle: Exclusion 4) | 127 |  | 24.1 |  |  |  |
| UGAGCAAGAGGAUAUACAUGACGUGCCGUAGCACGAGGUCUACAUGAGGAUCACCCAUGUAGAAGGCUUGUUCU [Mat - Exclusion 2 - JL Mod - D5] (Eterna round: R97, puzzle: Exclusion 2) | 170 |  | 34.2 |  |  |  |
| CAGUACUGAGGAUAUACAUGAGGAUCACCCAUGUGUUCCAGCUAGGAAACUAGCAGAAGUAGAAGGCAGUACUG [salish99_ex3_r3_067] (puzzle: Exclusion 3) |  |  |  | 25.5 | 425 | 23.9 |
| CUAGCUAUUGUAGGAUAUCGAUGUGUUUCACAUCGAGAAGGACAUGAGGAUCACCCAUGUGAAAGGAUCGUGAGAUCCAGCUAG [JL ENG1 3.76] (Eterna round: R96, puzzle: Exclusion NG 1) | 81.9 | 18.7 | 23.5 |  |  |  |
| ACGUGAUAUCUGUCGGUGGACAUGAGGAUCACCCAUGUAAGCUUCUUGCUCGUCUUAUAACCCGGUGACAGACCUUC [Zalaso] (puzzle: Sensor v3, turn-off variant 1) |  |  |  | 449 | 42.8 | 47 |
| UUGAAGUAAGGAUAUACAUGAGGAUCACCCAUGUGGAGGAAGGUGAUGGGAGUAGGUAGUAGAAGGUACGAGGA [JR_Exclu3_Sub063] (puzzle: Exclusion 3) |  |  |  | 100 | 124 | 220 |
| AAUAGGACAGGAUAUCCGGAGUCGAACAUGAGGAUCACCCAUGUGAUGAGGAUGUUCGCUGGAGAAGGGUCGGGCU [Teonus] (puzzle: Exclusion 5) |  |  |  | 56.5 | 83.9 | 53.7 |
| UUUUUACGAGGAUAUCGUUUUUUUCACAUGAGGAUCACCCAUGUUGUUUAUGUUGCGUUGCGAGAAGGCGUUUGUU [JR_E5_Sub063] (puzzle: Exclusion 5) |  |  |  | 24.2 |  |  |
| CCGAAGGCAGGAUAUACAGGACAGACCCAUCAGAGCAGACUACAUGAGGAUCACCCAUGUAGAAGGGCCUUCAA [Eternabot (Original) Solution 26] (Eterna round: R97, puzzle: Exclusion 2) | 154 |  | 18.7 |  |  |  |
| UUUGAUUGCACAGGAUAUUGUCAUUUGAGUUGUCAAGAAGGGUGUACAUGAGGAUCACCCAUGUAAUGGUUGCCUCGCUGACUU [JR_ExcNG1_Sub008] (Eterna round: R96, puzzle: Exclusion NG 1) |  | 77.1 |  |  |  |  |
| GCCAGAGCAGGAUAUUCAAUAUCUCACAUGAGGAUCACCCAUGUCCAUCGAAAGAUGGAGGGAGAAGGGCUCUGGC [Mat - Exclusion 5 - Eli mod - D92] (puzzle: Exclusion 5) |  |  |  | 45.5 | 37.3 | 64.7 |
| GUGAUAACCAAGCUAGCCAACAUGAGGAUCACCCAUGUGUUCGAUAUGCAACAGGUAUGAUCUUAAUUUGCUCGAUC [Eternabot (Original) Solution 20] (Eterna round: R97, puzzle: Sensor, turn-off variant 1) | 44.3 |  | 48.5 |  |  |  |
| CAAUUCCGAGGAUAUACAUGAGGAUCACCCAUGUCGGGCCUCAGCGUUUAGCGCUUAAGUAGAAGGUGGGUUUC [JL Riri mod 5] (puzzle: Exclusion 3) |  |  |  | 32.5 |  |  |
| AGAGUGUGAGGAUAUAUGGUGAAGAUGAAGGGAUAGAAGGAGUAGAAGGUACAUGAGGAUCACCCAUGUUAGGA [JR_Exclu4_Sub076] (puzzle: Exclusion 4) |  |  |  | 23.1 |  |  |
| AGCAAGCUUUUAAGAUCCUACAUGAGGAUCACCCAUGUGCUCGUCUUAUAACGUACUGUGACGAAAGUCACGGUACG [JL TOV1 3.32] (Eterna round: R97, puzzle: Sensor, turn-off variant 1) | 253 |  | 217 |  |  |  |
